According to US20140220017A1:

How the values were obtained:
human IgG (human) [1] = assay: QCM; pH 6
mouse IgG (mouse) [2] = assay: QCM; pH 6
human IgG (human) [3] = assay: QCM; pH 7.4
mouse IgG (mouse) [4] = assay: QCM; pH 7.4
mouse IgG Fc (mouse) [5] = assay: QCM; pH 6
human IgG Fc (human) [6] = assay: QCM; pH 6
mouse IgG Fc (mouse) [7] = assay: QCM; pH 7.4
human IgG Fc (human) [8] = assay: QCM; pH 7.4

Substance | Kd (human IgG (human) [1]) [µM] | Kd (mouse IgG (mouse) [2]) [µM] | Kd (human IgG (human) [3]) [µM] | Kd (mouse IgG (mouse) [4]) [µM] | Kd (mouse IgG Fc (mouse) [5]) [µM] | Kd (human IgG Fc (human) [6]) [µM] | Kd (mouse IgG Fc (mouse) [7]) [µM] | Kd (human IgG Fc (human) [8]) [µM]
SpAB (from UniProt P38507 212-269) | 0.35 | 15 | 0.009 | 0.38 |  |  |  | 
SpAD (from UniProt P38507 93-153) | 0.148 | 0.773 | 0.022 | 0.056 | 0.98 | 0.03 | 0.054 | 0.014
